Measurements published in PMC8411030.

Biological target: N-terminal domain of NOEY2 (NOEY2-N), LexA fusion (pGilda/LexA-NOEY2-N) (human) (UniProt O95661)
Assay: two-hybrid

UniProt O95661, sequence (O95661 whole entry, the tested form may be a part): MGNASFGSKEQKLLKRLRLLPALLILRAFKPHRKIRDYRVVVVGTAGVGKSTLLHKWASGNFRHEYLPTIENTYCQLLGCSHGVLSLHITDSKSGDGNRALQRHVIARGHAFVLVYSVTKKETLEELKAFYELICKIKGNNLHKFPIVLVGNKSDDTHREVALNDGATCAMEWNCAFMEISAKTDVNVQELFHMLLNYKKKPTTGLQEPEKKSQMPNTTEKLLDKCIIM

VEGFR-2, B42 fusion (pJG4-5) (from UniProt P35968 1-1356) (receptor)
β-galactosidase activity: 92.2 unit
